What was measured:
purified protein [1] = substrate: O=C(OCCO)c1ccc(C(=O)OCCO)cc1; test: purified protein; type: biochemical, Bacillus subtilis; conditions: 50 mM potassium phosphate (Na2HPO4-NaH2PO4), pH 7.5, 30 °C, BHET 0.8-15 mM
purified protein [2] = substrate: O=C(OCCO)c1ccc(C(=O)OCCO)cc1; test: purified protein; type: biochemical, Chryseobacterium sp. PET-29; conditions: 50 mM potassium phosphate (Na2HPO4-NaH2PO4), pH 7.5, 30 °C, BHET 0.8-15 mM

B1: BsEst (Bacillus subtilis subsp. subtilis str. 168) (protein)
chain: MTHQIVTTQYGKVKGTTENGVHKWKGIPYAKPPVGQWRFKAPEPPEVWEDVLDATAYGSICPQPSDLLSLSYTELPRQSEDCLYVNVFAPDTPSKNLPVMVWIHGGAFYLGAGSEPLYDGSKLAAQGEVIVVTLNYRLGPFGFLHLSSFNEAYSDNLGLLDQAAALKWVRENISAFGGDPDNVTVFGESAGGMSIAALLAMPAAKGLFQKAIMESGASRTMTKEQAASTSAAFLQVLGINEGQLDKLHTVSAEDLLKAADQLRIAEKENIFQLFFQPALDPKTLPEEPEKAIAEGAASGIPLLIGTTRDEGYLFFTPDSDVHSQETLDAALEYLLGKPLAEKVADLYPRSLESQIHMMTDLLFWRPAVAYASAQSHYAPVWMYRFDWHPKKPPYNKAFHALELPFVFGNLDGLERMAKAEITDEVKQLSHTIQSAWITFAKTGNPSTEAVNWPAYHEETRETLILDSEITIENDPESEKRQKLFPSKGE
notes: catalytic triad S189-E310-H399; L410-K418 barrier
- Km (purified protein [1]): 100 ± 20 µM
- kcat (purified protein [1]): 37.7 ± 1.98 s⁻¹
- kcat/Km (purified protein [1]): 382000 ± 84500 M⁻¹ s⁻¹

B2: BsEst (Bacillus subtilis subsp. subtilis str. 168; DEL410-418/INS409GG) (protein)
chain: MTHQIVTTQYGKVKGTTENGVHKWKGIPYAKPPVGQWRFKAPEPPEVWEDVLDATAYGSICPQPSDLLSLSYTELPRQSEDCLYVNVFAPDTPSKNLPVMVWIHGGAFYLGAGSEPLYDGSKLAAQGEVIVVTLNYRLGPFGFLHLSSFNEAYSDNLGLLDQAAALKWVRENISAFGGDPDNVTVFGESAGGMSIAALLAMPAAKGLFQKAIMESGASRTMTKEQAASTSAAFLQVLGINEGQLDKLHTVSAEDLLKAADQLRIAEKENIFQLFFQPALDPKTLPEEPEKAIAEGAASGIPLLIGTTRDEGYLFFTPDSDVHSQETLDAALEYLLGKPLAEKVADLYPRSLESQIHMMTDLLFWRPAVAYASAQSHYAPVWMYRFDWHPKKPPYNKAFHALELPFVFGNGGAEITDEVKQLSHTIQSAWITFAKTGNPSTEAVNWPAYHEETRETLILDSEITIENDPESEKRQKLFPSKGE
notes: as for B1
- Km (purified protein [1]): 80 ± 30 µM
- kcat (purified protein [1]): 102 ± 5.18 s⁻¹
- kcat/Km (purified protein [1]): 1.35e+06 ± 334000 M⁻¹ s⁻¹

B3: ChryBHETase (Chryseobacterium sp. PET-29) (protein)
chain: MTTQQHKKIHTFHTSFGTIPALKGNGVIRAKSIRYARSQRFKKPEPLPYPEHDEIPDKTPVCPQNVSPLLDRLIQKTDVEQFEPDESPQFLTITRPEHFNENEKLPVIVWIHGGSYEIGCGDLPTSDPSVWVKEQHIIVVSVSYRLGLFGFLGGSEERPANLGLYDMIAALQWIKQYIRDFGGDPENITLFGQSSGGDAIAHLMISEETENLFRHVIIHSAPLGFRINRQKMSHEFFLKTDILKDEPDALKMVAGYRTFLPSFRKYGLKTSMPFCTQYGHPPLCQEEETMPNWKQNAKKYDVLIGSNQDETAFYVKTSQTGIYTYLPQRILNKIVRKTTASIYEKPAKAFAENLAAGGGNVYQFVIRSTLKSNNIGASHCVDLPLLFENKEAWQSAELLKDVPWEYIQENGKKLRALWAEFARSGSISEDSERPEILKLKKVKN
notes: catalytic triad S194-E310-H379; V66-K76 barrier
- Km (purified protein [2]): 90 ± 20 µM
- kcat (purified protein [2]): 6.85 ± 0.53 s⁻¹
- kcat/Km (purified protein [2]): 77400 ± 11000 M⁻¹ s⁻¹

B4: ChryBHETase (Chryseobacterium sp. PET-29; DEL66-76/INS65GG) (protein)
chain: MTTQQHKKIHTFHTSFGTIPALKGNGVIRAKSIRYARSQRFKKPEPLPYPEHDEIPDKTPVCPQNGGTDVEQFEPDESPQFLTITRPEHFNENEKLPVIVWIHGGSYEIGCGDLPTSDPSVWVKEQHIIVVSVSYRLGLFGFLGGSEERPANLGLYDMIAALQWIKQYIRDFGGDPENITLFGQSSGGDAIAHLMISEETENLFRHVIIHSAPLGFRINRQKMSHEFFLKTDILKDEPDALKMVAGYRTFLPSFRKYGLKTSMPFCTQYGHPPLCQEEETMPNWKQNAKKYDVLIGSNQDETAFYVKTSQTGIYTYLPQRILNKIVRKTTASIYEKPAKAFAENLAAGGGNVYQFVIRSTLKSNNIGASHCVDLPLLFENKEAWQSAELLKDVPWEYIQENGKKLRALWAEFARSGSISEDSERPEILKLKKVKN
notes: as for B3
- Km (purified protein [2]): 120 ± 30 µM
- kcat (purified protein [2]): 12.9 ± 1.24 s⁻¹
- kcat/Km (purified protein [2]): 109000 ± 12900 M⁻¹ s⁻¹
